From patent US20170158755A1 (PROTHENA BIOSCIENCES, published 2017)

T1: human His-laminin-α4 (human, UniProt Q16363 833-1823, limits assumed)
T1 construct: Bought His-tagged recombinant protein (R & D Systems); also called Human LAMA4; human His-laminin-α4 (R & D Systems)
T1 sequence: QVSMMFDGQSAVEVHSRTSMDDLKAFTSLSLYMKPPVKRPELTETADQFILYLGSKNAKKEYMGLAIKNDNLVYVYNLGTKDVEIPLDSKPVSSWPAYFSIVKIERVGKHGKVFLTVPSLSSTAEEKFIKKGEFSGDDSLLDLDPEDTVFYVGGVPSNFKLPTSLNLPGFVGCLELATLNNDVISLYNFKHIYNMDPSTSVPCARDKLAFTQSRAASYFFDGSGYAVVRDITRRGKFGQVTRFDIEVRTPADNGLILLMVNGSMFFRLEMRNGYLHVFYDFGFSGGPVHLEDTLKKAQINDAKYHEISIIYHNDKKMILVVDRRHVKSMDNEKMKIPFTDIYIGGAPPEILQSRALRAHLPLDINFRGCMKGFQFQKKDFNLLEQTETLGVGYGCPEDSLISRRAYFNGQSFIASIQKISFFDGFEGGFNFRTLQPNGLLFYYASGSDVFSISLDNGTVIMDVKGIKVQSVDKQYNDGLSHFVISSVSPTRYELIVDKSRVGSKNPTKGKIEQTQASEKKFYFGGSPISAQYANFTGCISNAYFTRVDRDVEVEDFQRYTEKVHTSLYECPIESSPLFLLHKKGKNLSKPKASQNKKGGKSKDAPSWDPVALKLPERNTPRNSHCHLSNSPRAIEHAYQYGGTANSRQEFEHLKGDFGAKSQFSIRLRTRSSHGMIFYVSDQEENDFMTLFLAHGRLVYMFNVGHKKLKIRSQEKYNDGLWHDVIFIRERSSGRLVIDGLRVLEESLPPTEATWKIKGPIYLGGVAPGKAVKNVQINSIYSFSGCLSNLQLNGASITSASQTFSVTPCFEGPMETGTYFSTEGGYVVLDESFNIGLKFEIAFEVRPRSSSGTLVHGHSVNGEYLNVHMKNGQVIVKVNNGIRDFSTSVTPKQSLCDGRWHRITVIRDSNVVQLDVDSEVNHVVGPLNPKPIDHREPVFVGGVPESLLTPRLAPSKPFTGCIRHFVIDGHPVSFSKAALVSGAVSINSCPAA

T2: mouse His-laminin-α4 (mouse, UniProt P97927 826-1816, limits assumed)
T2 construct: Bought His-tagged recombinant protein; also called Murine LAMA4; recombinant mouse LAMA4-His
T2 sequence (looked up): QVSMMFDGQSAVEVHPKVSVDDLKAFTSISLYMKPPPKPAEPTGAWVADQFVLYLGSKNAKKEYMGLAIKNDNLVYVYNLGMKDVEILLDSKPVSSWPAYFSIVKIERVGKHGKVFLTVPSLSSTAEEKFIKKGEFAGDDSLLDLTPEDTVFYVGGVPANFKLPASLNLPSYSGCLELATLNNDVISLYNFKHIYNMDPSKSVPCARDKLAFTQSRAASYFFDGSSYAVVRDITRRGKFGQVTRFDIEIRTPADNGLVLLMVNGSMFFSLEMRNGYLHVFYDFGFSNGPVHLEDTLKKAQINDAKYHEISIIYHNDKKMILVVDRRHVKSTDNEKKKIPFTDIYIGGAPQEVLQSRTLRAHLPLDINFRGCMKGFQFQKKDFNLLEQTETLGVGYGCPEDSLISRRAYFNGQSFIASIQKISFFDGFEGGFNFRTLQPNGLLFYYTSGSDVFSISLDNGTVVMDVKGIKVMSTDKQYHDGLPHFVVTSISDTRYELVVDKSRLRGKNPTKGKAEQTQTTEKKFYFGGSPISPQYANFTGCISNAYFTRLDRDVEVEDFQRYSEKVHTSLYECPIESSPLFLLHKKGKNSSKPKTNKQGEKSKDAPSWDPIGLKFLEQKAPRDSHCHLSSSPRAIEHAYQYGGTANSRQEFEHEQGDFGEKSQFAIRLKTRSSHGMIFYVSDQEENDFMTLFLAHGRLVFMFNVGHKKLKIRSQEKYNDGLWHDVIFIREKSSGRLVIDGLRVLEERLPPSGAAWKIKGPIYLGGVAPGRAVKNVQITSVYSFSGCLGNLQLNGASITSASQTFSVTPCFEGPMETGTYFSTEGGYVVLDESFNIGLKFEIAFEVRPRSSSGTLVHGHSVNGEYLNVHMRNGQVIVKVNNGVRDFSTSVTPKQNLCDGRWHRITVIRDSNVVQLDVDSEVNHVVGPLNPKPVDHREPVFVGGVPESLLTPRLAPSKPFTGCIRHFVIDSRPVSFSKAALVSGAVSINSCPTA

B1: mouse monoclonal antibody 19C12 (antibody, V domains shown)
VH: QVQLQQSGAELVKPGASVKISCKASGYAFSTYWMNWVKQRPGEGLEWIGQIYPGDGDTNYNGKFKGKATLTADKSSSTAYMQLSSLTSEDSAVYFCARSDGYYDYWGQGTTLTVSS
VL: NIVLTQSPASLAVSLGQRATISCRASESVDSYGTSFMHWYQQKPGQPPKLLICLASSLESGVPARFSGSGSRTDFTLTIDPVEADDAATYYCQQNNEDPPTFGAGTKLELKR
notes: Mouse hybridoma antibody; Mouse IgG2b was used as its isotype control; also called m19C12
B2: mouse monoclonal antibody 1C1 (antibody, V domains shown)
VH: QVQLQQSGAELARPGASVKLSCKASGYTFTNYGISWVKQRTGQGLEWIGAIYPRSGNTYYNEKFKGKATLTADKSSSTAYMELRSLTSEDSAVYFCARERDYGSSYALDYWGQGTSVTVSS
VL: DIVMTQSQKFMSTSVGDRVSVTCKASHNVGTNVAWYQQKPGQSPKPLIYSASYRYSGVPDRFTGSGSGTDFTLTISNVQSEDLADYFCQQFNNYPYTFGGGTKLEIKR
notes: version 1 is written here

Assays:
human His-laminin-α4 = biological target: T1, human His-laminin-α4; assay: Biacore SPR
mouse His-laminin-α4 = biological target: T2, mouse His-laminin-α4; assay: Biacore SPR

Binder | Kd (human His-laminin-α4) | koff (human His-laminin-α4) | kon (human His-laminin-α4) | Kd (mouse His-laminin-α4) | koff (mouse His-laminin-α4) | kon (mouse His-laminin-α4)
B1 | 1.27 nM | 0.00858 s⁻¹ | 6.72e+06 M⁻¹ s⁻¹ | 0.965 nM | 0.0061 s⁻¹ | 6.32e+06 M⁻¹ s⁻¹
B2 | 13.3 nM | 0.00917 s⁻¹ | 610000 M⁻¹ s⁻¹ | 16.1 nM | 0.00947 s⁻¹ | 590000 M⁻¹ s⁻¹
